{"source": "patent US20060024313A1", "about": "(published 2006)", "key": {"DPP-IV H750A mutant": {"molecular_target": "T1, DPP-IV H750A mutant (human, UniProt P27487 39-766)", "T1 construct": "range 39-766; also called H750A dimer; H750A monomer", "assay": "ADA affinity column purification"}, "DPP-IV H750E mutant": {"molecular_target": "T2, DPP-IV H750E mutant (human, UniProt P27487 39-766)", "T2 construct": "range 39-766; Monomeric by AUC", "assay": "ADA affinity column purification"}, "[1]": {"molecular_target": "the molecule itself", "assay": "dimer form listed in the table of kinetic constants (self-association)"}, "AUC (self-association)": {"molecular_target": "the molecule itself", "assay": "AUC (self-association)"}}}
{"binder": "Bovine adenosine deaminase (ADA) (enzyme, UniProt P56658 2-363, looked up, coupled to CNBr-activated Sepharose 4B (affinity column)) AQTPAFNKPKVELHVHLDGAIKPETILYYGRKRGIALPADTPEELQNIIGMDKPLSLPEFLAKFDYYMPAIAGCREAVKRIAYEFVEMKAKDGVVYVEVRYSPHLLANSKVEPIPWNQAEGDLTPDEVVSLVNQGLQEGERDFGVKVRSILCCMRHQPSWSSEVVELCKKYREQTVVAIDLAGDETIEGSSLFPGHVKAYAEAVKSGVHRTVHAGEVGSANVVKEAVDTLKTERLGHGYHTLEDATLYNRLRQENMHFEVCPWSSYLTGAWKPDTEHPVVRFKNDQVNYSLNTDDPLIFKSTLDTDYQMTKNEMGFTEEEFKRLNINAAKSSFLPEDEKKELLDLLYKAYGMPSPASAEQCL", "values": [{"measurement": "binding result", "setting": "DPP-IV H750A mutant", "value": "binds"}, {"measurement": "binding result", "setting": "DPP-IV H750E mutant", "value": "binds"}]}
{"binder": "DPP-IV V724A mutant (enzyme, human, UniProt P27487 39-766, looked up, Mixture of monomers and dimers) SRKTYTLTDYLKNTYRLKLYSLRWISDHEYLYKQENNILVFNAEYGNSSVFLENSTFDEFGHSINDYSISPDGQFILLEYNYVKQWRHSYTASYDIYDLNKRQLITEERIPNNTQWVTWSPVGHKLAYVWNNDIYVKIEPNLPSYRITWTGKEDIIYNGITDWVYEEEVFSAYSALWWSPNGTFLAYAQFNDTEVPLIEYSFYSDESLQYPKTVRVPYPKAGAVNPTVKFFVVNTDSLSSVTNATSIQITAPASMLIGDHYLCDVTWATQERISLQWLRRIQNYSVMDICDYDESSGRWNCLVARQHIEMSTTGWVGRFRPSEPHFTLDGNSFYKIISNEEGYRHICYFQIDKKDCTFITKGTWEVIGIEALTSDYLYYISNEYKGMPGGRNLYKIQLSDYTKVTCLSCELNPERCQYYSVSFSKEAKYYQLRCSGPGLPLYTLHSSVNDKGLRVLEDNSALDKMLQNVQMPSKKLDFIILNETKFWYQMILPPHFDKSKKYPLLLDVYAGPCSQKADTVFRLNWATYLASTENIIVASFDGRGSGYQGDKIMHAINRRLGTFEVEDQIEAARQFSKMGFVDNKRIAIWGWSYGGYVTSMVLGSGSGVFKCGIAVAPVSRWEYYDSVYTERYMGLPTPEDNLDHYRNSTVMSRAENFKQVEYLLIHGTADDNVHFQQSAQISKALADVGVDFQAMWYTDEDHGIASSTAHQHIYTHMSHFIKQCFSLP", "values": [{"measurement": "binding result", "setting": "[1]", "value": "binds"}]}
{"binder": "DPP-IV F713R mutant (enzyme, human, UniProt P27487 39-766, looked up) SRKTYTLTDYLKNTYRLKLYSLRWISDHEYLYKQENNILVFNAEYGNSSVFLENSTFDEFGHSINDYSISPDGQFILLEYNYVKQWRHSYTASYDIYDLNKRQLITEERIPNNTQWVTWSPVGHKLAYVWNNDIYVKIEPNLPSYRITWTGKEDIIYNGITDWVYEEEVFSAYSALWWSPNGTFLAYAQFNDTEVPLIEYSFYSDESLQYPKTVRVPYPKAGAVNPTVKFFVVNTDSLSSVTNATSIQITAPASMLIGDHYLCDVTWATQERISLQWLRRIQNYSVMDICDYDESSGRWNCLVARQHIEMSTTGWVGRFRPSEPHFTLDGNSFYKIISNEEGYRHICYFQIDKKDCTFITKGTWEVIGIEALTSDYLYYISNEYKGMPGGRNLYKIQLSDYTKVTCLSCELNPERCQYYSVSFSKEAKYYQLRCSGPGLPLYTLHSSVNDKGLRVLEDNSALDKMLQNVQMPSKKLDFIILNETKFWYQMILPPHFDKSKKYPLLLDVYAGPCSQKADTVFRLNWATYLASTENIIVASFDGRGSGYQGDKIMHAINRRLGTFEVEDQIEAARQFSKMGFVDNKRIAIWGWSYGGYVTSMVLGSGSGVFKCGIAVAPVSRWEYYDSVYTERYMGLPTPEDNLDHYRNSTVMSRAENFKQVEYLLIHGTADDNVHRQQSAQISKALVDVGVDFQAMWYTDEDHGIASSTAHQHIYTHMSHFIKQCFSLP", "values": [{"measurement": "binding result", "setting": "AUC (self-association)", "value": "no binding"}]}
{"binder": "DPP-IV F713A mutant (enzyme, human, UniProt P27487 39-766, looked up) SRKTYTLTDYLKNTYRLKLYSLRWISDHEYLYKQENNILVFNAEYGNSSVFLENSTFDEFGHSINDYSISPDGQFILLEYNYVKQWRHSYTASYDIYDLNKRQLITEERIPNNTQWVTWSPVGHKLAYVWNNDIYVKIEPNLPSYRITWTGKEDIIYNGITDWVYEEEVFSAYSALWWSPNGTFLAYAQFNDTEVPLIEYSFYSDESLQYPKTVRVPYPKAGAVNPTVKFFVVNTDSLSSVTNATSIQITAPASMLIGDHYLCDVTWATQERISLQWLRRIQNYSVMDICDYDESSGRWNCLVARQHIEMSTTGWVGRFRPSEPHFTLDGNSFYKIISNEEGYRHICYFQIDKKDCTFITKGTWEVIGIEALTSDYLYYISNEYKGMPGGRNLYKIQLSDYTKVTCLSCELNPERCQYYSVSFSKEAKYYQLRCSGPGLPLYTLHSSVNDKGLRVLEDNSALDKMLQNVQMPSKKLDFIILNETKFWYQMILPPHFDKSKKYPLLLDVYAGPCSQKADTVFRLNWATYLASTENIIVASFDGRGSGYQGDKIMHAINRRLGTFEVEDQIEAARQFSKMGFVDNKRIAIWGWSYGGYVTSMVLGSGSGVFKCGIAVAPVSRWEYYDSVYTERYMGLPTPEDNLDHYRNSTVMSRAENFKQVEYLLIHGTADDNVHAQQSAQISKALVDVGVDFQAMWYTDEDHGIASSTAHQHIYTHMSHFIKQCFSLP", "values": [{"measurement": "binding result", "setting": "AUC (self-association)", "value": "no binding"}]}
{"binder": "DPP-IV Y248A mutant (enzyme, human, UniProt P27487 39-766, looked up, Monomer by AUC) SRKTYTLTDYLKNTYRLKLYSLRWISDHEYLYKQENNILVFNAEYGNSSVFLENSTFDEFGHSINDYSISPDGQFILLEYNYVKQWRHSYTASYDIYDLNKRQLITEERIPNNTQWVTWSPVGHKLAYVWNNDIYVKIEPNLPSYRITWTGKEDIIYNGITDWVYEEEVFSAYSALWWSPNGTFLAYAQFNDTEVPLIEYSFYSDESLQAPKTVRVPYPKAGAVNPTVKFFVVNTDSLSSVTNATSIQITAPASMLIGDHYLCDVTWATQERISLQWLRRIQNYSVMDICDYDESSGRWNCLVARQHIEMSTTGWVGRFRPSEPHFTLDGNSFYKIISNEEGYRHICYFQIDKKDCTFITKGTWEVIGIEALTSDYLYYISNEYKGMPGGRNLYKIQLSDYTKVTCLSCELNPERCQYYSVSFSKEAKYYQLRCSGPGLPLYTLHSSVNDKGLRVLEDNSALDKMLQNVQMPSKKLDFIILNETKFWYQMILPPHFDKSKKYPLLLDVYAGPCSQKADTVFRLNWATYLASTENIIVASFDGRGSGYQGDKIMHAINRRLGTFEVEDQIEAARQFSKMGFVDNKRIAIWGWSYGGYVTSMVLGSGSGVFKCGIAVAPVSRWEYYDSVYTERYMGLPTPEDNLDHYRNSTVMSRAENFKQVEYLLIHGTADDNVHFQQSAQISKALVDVGVDFQAMWYTDEDHGIASSTAHQHIYTHMSHFIKQCFSLP", "values": [{"measurement": "binding result", "setting": "AUC (self-association)", "value": "no binding"}]}
{"binder": "DPP-IV Y735A mutant (enzyme, human, UniProt P27487 39-766, looked up, Monomer by AUC) SRKTYTLTDYLKNTYRLKLYSLRWISDHEYLYKQENNILVFNAEYGNSSVFLENSTFDEFGHSINDYSISPDGQFILLEYNYVKQWRHSYTASYDIYDLNKRQLITEERIPNNTQWVTWSPVGHKLAYVWNNDIYVKIEPNLPSYRITWTGKEDIIYNGITDWVYEEEVFSAYSALWWSPNGTFLAYAQFNDTEVPLIEYSFYSDESLQYPKTVRVPYPKAGAVNPTVKFFVVNTDSLSSVTNATSIQITAPASMLIGDHYLCDVTWATQERISLQWLRRIQNYSVMDICDYDESSGRWNCLVARQHIEMSTTGWVGRFRPSEPHFTLDGNSFYKIISNEEGYRHICYFQIDKKDCTFITKGTWEVIGIEALTSDYLYYISNEYKGMPGGRNLYKIQLSDYTKVTCLSCELNPERCQYYSVSFSKEAKYYQLRCSGPGLPLYTLHSSVNDKGLRVLEDNSALDKMLQNVQMPSKKLDFIILNETKFWYQMILPPHFDKSKKYPLLLDVYAGPCSQKADTVFRLNWATYLASTENIIVASFDGRGSGYQGDKIMHAINRRLGTFEVEDQIEAARQFSKMGFVDNKRIAIWGWSYGGYVTSMVLGSGSGVFKCGIAVAPVSRWEYYDSVYTERYMGLPTPEDNLDHYRNSTVMSRAENFKQVEYLLIHGTADDNVHFQQSAQISKALVDVGVDFQAMWATDEDHGIASSTAHQHIYTHMSHFIKQCFSLP", "values": [{"measurement": "binding result", "setting": "AUC (self-association)", "value": "no binding"}]}
{"binder": "DPP-IV F730A mutant (enzyme, human, UniProt P27487 39-766, looked up, Mixture of monomers and dimers) SRKTYTLTDYLKNTYRLKLYSLRWISDHEYLYKQENNILVFNAEYGNSSVFLENSTFDEFGHSINDYSISPDGQFILLEYNYVKQWRHSYTASYDIYDLNKRQLITEERIPNNTQWVTWSPVGHKLAYVWNNDIYVKIEPNLPSYRITWTGKEDIIYNGITDWVYEEEVFSAYSALWWSPNGTFLAYAQFNDTEVPLIEYSFYSDESLQYPKTVRVPYPKAGAVNPTVKFFVVNTDSLSSVTNATSIQITAPASMLIGDHYLCDVTWATQERISLQWLRRIQNYSVMDICDYDESSGRWNCLVARQHIEMSTTGWVGRFRPSEPHFTLDGNSFYKIISNEEGYRHICYFQIDKKDCTFITKGTWEVIGIEALTSDYLYYISNEYKGMPGGRNLYKIQLSDYTKVTCLSCELNPERCQYYSVSFSKEAKYYQLRCSGPGLPLYTLHSSVNDKGLRVLEDNSALDKMLQNVQMPSKKLDFIILNETKFWYQMILPPHFDKSKKYPLLLDVYAGPCSQKADTVFRLNWATYLASTENIIVASFDGRGSGYQGDKIMHAINRRLGTFEVEDQIEAARQFSKMGFVDNKRIAIWGWSYGGYVTSMVLGSGSGVFKCGIAVAPVSRWEYYDSVYTERYMGLPTPEDNLDHYRNSTVMSRAENFKQVEYLLIHGTADDNVHFQQSAQISKALVDVGVDAQAMWYTDEDHGIASSTAHQHIYTHMSHFIKQCFSLP", "values": [{"measurement": "binding result", "setting": "[1]", "value": "binds"}]}
{"binder": "DPP-IV W734A mutant (enzyme, human, UniProt P27487 39-766, looked up, Monomer by AUC) SRKTYTLTDYLKNTYRLKLYSLRWISDHEYLYKQENNILVFNAEYGNSSVFLENSTFDEFGHSINDYSISPDGQFILLEYNYVKQWRHSYTASYDIYDLNKRQLITEERIPNNTQWVTWSPVGHKLAYVWNNDIYVKIEPNLPSYRITWTGKEDIIYNGITDWVYEEEVFSAYSALWWSPNGTFLAYAQFNDTEVPLIEYSFYSDESLQYPKTVRVPYPKAGAVNPTVKFFVVNTDSLSSVTNATSIQITAPASMLIGDHYLCDVTWATQERISLQWLRRIQNYSVMDICDYDESSGRWNCLVARQHIEMSTTGWVGRFRPSEPHFTLDGNSFYKIISNEEGYRHICYFQIDKKDCTFITKGTWEVIGIEALTSDYLYYISNEYKGMPGGRNLYKIQLSDYTKVTCLSCELNPERCQYYSVSFSKEAKYYQLRCSGPGLPLYTLHSSVNDKGLRVLEDNSALDKMLQNVQMPSKKLDFIILNETKFWYQMILPPHFDKSKKYPLLLDVYAGPCSQKADTVFRLNWATYLASTENIIVASFDGRGSGYQGDKIMHAINRRLGTFEVEDQIEAARQFSKMGFVDNKRIAIWGWSYGGYVTSMVLGSGSGVFKCGIAVAPVSRWEYYDSVYTERYMGLPTPEDNLDHYRNSTVMSRAENFKQVEYLLIHGTADDNVHFQQSAQISKALVDVGVDFQAMAYTDEDHGIASSTAHQHIYTHMSHFIKQCFSLP", "values": [{"measurement": "binding result", "setting": "AUC (self-association)", "value": "no binding"}]}
